{
  "source": "patent US11008403",
  "about": "(dated 2021)",
  "test_in_all_cases": "SPR",
  "key": {"cyno TfR ECD [1]": {"molecular_target": "T1, cyno TfR ECD (cynomolgus)", "T1 chain": "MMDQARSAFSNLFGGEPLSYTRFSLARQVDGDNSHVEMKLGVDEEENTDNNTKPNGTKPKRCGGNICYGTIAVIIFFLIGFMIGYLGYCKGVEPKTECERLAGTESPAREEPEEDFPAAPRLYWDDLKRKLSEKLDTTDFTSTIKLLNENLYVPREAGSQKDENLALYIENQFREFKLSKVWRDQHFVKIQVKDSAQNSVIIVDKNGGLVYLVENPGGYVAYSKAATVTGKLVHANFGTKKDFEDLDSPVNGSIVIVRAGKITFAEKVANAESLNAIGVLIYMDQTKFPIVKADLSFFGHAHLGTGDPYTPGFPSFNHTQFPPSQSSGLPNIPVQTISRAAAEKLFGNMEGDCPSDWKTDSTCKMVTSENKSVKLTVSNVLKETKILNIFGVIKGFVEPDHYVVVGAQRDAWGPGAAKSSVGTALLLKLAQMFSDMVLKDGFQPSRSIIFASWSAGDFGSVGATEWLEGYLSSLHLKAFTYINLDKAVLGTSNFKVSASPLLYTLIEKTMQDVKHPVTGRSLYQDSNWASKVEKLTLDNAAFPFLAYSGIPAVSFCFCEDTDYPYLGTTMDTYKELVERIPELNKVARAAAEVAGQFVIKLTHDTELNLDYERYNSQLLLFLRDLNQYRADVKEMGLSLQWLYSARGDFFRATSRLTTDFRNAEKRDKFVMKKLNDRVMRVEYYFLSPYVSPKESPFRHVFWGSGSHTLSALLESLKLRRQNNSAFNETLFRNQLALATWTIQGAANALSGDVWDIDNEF"}, "human TfR ECD [2]": {"molecular_target": "human TfR ECD (human)"}, "cyno TfR ECD [3]": {"molecular_target": "T1, cyno TfR ECD"}, "cyno TfR ECD [4]": {"molecular_target": "T1, cyno TfR ECD"}, "human TfR ECD [5]": {"molecular_target": "human TfR ECD (human)", "remark": "listed apart in the source"}, "human TfR ECD [6]": {"molecular_target": "human TfR ECD (human)", "remark": "listed apart in the source"}, "cyno TfR ECD [7]": {"molecular_target": "T1, cyno TfR ECD"}, "human TfR ECD [8]": {"molecular_target": "human TfR ECD (human)", "remark": "listed apart in the source"}},
  "note": "“And” between values parts separate entries of the source, which are not always exact repeats. Equal entries are not always repeated. Where two headings read alike, the source gives them in different places.",
  "data": [
    {"binder": "Anti-TfR2/6266.hIgG1.LALAPG.YTE, TfR arm (antibody, V domains shown) VH: EVQLVQSGAEVKKPGASVKVSCKASGYTFTSYWMHWVRQAPGQRLEWIGEINPTNGRTNYIEKFKSRATLTVDKSASTAYMELSSLRSEDTAVYYCARGTRAYHYWGQGTMVTVSS VL: DIQMTQSPSSLSASVGDRVTITCRASDNLYSNLAWYQQKPGKSPKLLVYDATNLADGVPSRFSGSGSGTDYTLTISSLQPEDFATYYCQHFAGTPLTFGQGTKVEIKR", "values": [
      {"measurement": "Kd", "setting": "cyno TfR ECD [1]", "result": 1650, "unit": "nM"}
    ]},
    {"binder": "Hu15G11.W92A bispecific, TfR arm (antibody, V domains shown) VH: EVQLVQSGAEVKKPGASVKVSCKASGYTFTSYWMHWVRQAPGQRLEWIGEINPTNGRTNYIEKFKSRATLTVDKSASTAYMELSSLRSEDTAVYYCARGTRAYHYWGQGTMVTVSS VL: DIQMTQSPSSLSASVGDRVTITCRASDNLYSNLAWYQQKPGKSPKLLVYDATNLADGVPSRFSGSGSGTDYTLTISSLQPEDFATYYCQHFAGTPLTFGQGTKVEIK", "values": [
      {"measurement": "Kd", "setting": "human TfR ECD [2]", "result": 295, "unit": "nM"},
      {"measurement": "Kd", "setting": "cyno TfR ECD [3]", "result": 622, "unit": "nM"}
    ]},
    {"binder": "Hu15G11.v5 Fab (antibody, V domains shown) VH: EVQLVQSGAEVKKPGASVKVSCKASGYTFTSYWMHWVRQAPGQRLEWIGEINPTNGRTNYIEKFKSRATLTVDKSASTAYMELSSLRSEDTAVYYCARGTRAYHYWGQGTMVTVSS VL: DIQMTQSPSSLSASVGDRVTITCRASDNLYSNLAWYQQKPGKSPKLLVYDATNLADGVPSRFSGSGSGTDYTLTISSLQPEDFATYYCQHFWGTPLTFGQGTKVEIK", "values": [
      {"measurement": "Kd", "setting": "human TfR ECD [2]", "result": 7.03, "unit": "nM"},
      {"measurement": "Kd", "setting": "cyno TfR ECD [4]", "result": 28.2, "unit": "nM"},
      {"measurement": "Kd", "setting": "cyno TfR ECD [3]", "result": 28.2, "unit": "nM"},
      {"measurement": "Kd", "setting": "human TfR ECD [5]", "result": "4.7 nM and 8.91 nM"},
      {"measurement": "Kd", "setting": "human TfR ECD [6]", "result": 7.03, "unit": "nM"},
      {"measurement": "Kd", "setting": "cyno TfR ECD [7]", "result": 15.6, "unit": "nM"}
    ]},
    {"binder": "Anti-TfR1/6266.hIgG1.N297G, TfR arm (antibody, V domains shown) VH: EVQLVQSGAEVKKPGASVKVSCKASGYTFTSYWMHWVRQAPGQRLEWIGEINPTNGRTNYIEKFKSRATLTVDKSASTAYMELSSLRSEDTAVYYCARGTRAYHYWGQGTMVTVSS VL: DIQMTQSPSSLSASVGDRVTITCRASDNLYSNLAWYQQKPGKSPKLLVYDATNLADGVPSRFSGSGSGTDYTLTISSLQPEDFATYYCQHFWGTPLTFGQGTKVEIK", "values": [
      {"measurement": "Kd", "setting": "human TfR ECD [8]", "result": 9, "unit": "nM"},
      {"measurement": "Kd", "setting": "cyno TfR ECD [1]", "result": 23.7, "unit": "nM"}
    ]}
  ]
}
